{"source": "patent US20200308559A1", "about": "“Composition for detecting protein-protein interactions comprising fragments of secreted alkaline phosphatase (SEAP) and method for detecting protein-protein interactions using the same” (priority 2019, published 2020)", "biological_target": "T1, interaction (binding) between FKBP12 and FRB (Homo sapiens, UniProt P42345+P62942)", "T1 construct": "FLAG-FRB expression vector; expressed in transfected cells; host or cells: HEK-293T (ATCC CRL-11268)", "T1 sequence (P62942 whole entry, the tested form may be a part)": "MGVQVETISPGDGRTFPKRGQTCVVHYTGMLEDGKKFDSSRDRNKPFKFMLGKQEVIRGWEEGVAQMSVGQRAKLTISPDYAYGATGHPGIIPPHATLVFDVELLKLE", "T1 sequence (P42345 2012-2144)": "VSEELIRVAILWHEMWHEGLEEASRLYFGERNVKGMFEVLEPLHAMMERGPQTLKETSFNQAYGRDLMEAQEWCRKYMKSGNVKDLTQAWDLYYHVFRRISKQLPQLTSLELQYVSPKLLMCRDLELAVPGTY", "experiment": "Split SEAP fragment complementation: SEAP activity in culture supernatant (pNpp, absorbance 405 nm) after rapamycin-induced FKBP12-FRB binding", "assay_type": "cell-based", "settings": "HEK-293T cells, same manner as Example 2; for SEAP activity of the pair pSNA387 with pSCA380 (FIG. 6): N-terminal fragment cleaved at 387, C-terminal fragment cleaved at 379; for SEAP activity of the pair pSNA418 with pSCA405 or pSCB405 (FIG. 6): N-terminal fragment cleaved at 418, C-terminal fragment cleaved at 404; for SEAP activity of the pair pSNA404 with pSCA388 or pSCB388 (FIG. 6): N-terminal fragment cleaved at 404, C-terminal fragment cleaved at 387; for SEAP activity of the pair pSNA379 with pSCA373 or pSCB373 (FIG. 6): N-terminal fragment cleaved at 379, C-terminal fragment cleaved at 372", "procedure": "HEK-293T (Human embryonic kidney cell, ATCC: CRL-11268) cells were cultured in DMEM (Dulbecco's modified Eagle's media, Gibco, Seoul, South Korea) treated with a 10% (v/v) FBS (HyClone) and 1% (v/v) penicillin/streptomycin solution (HyClone) and cultured at 37° C. in a humidified atmosphere containing 5% CO2.\nHEK-293T cells were seeded at 2×10^4 cells per well in a 48-well plate and cultured until 24 hours before transformation.\nFor the transformation, 0.15 μL of PEI (PEI, <20,000 MW, Cat. No. 23966, Polysciences, Inc., Warrington, Pa., USA; stock solution: 4 mg/mL in ddH20, pH 7.2) was mixed with 0.2 pLg of DNA, and the mixture was vortexed for 5 seconds and then incubated for 20 minutes at 25° C. to prepare 40 μL of DNA-PEI mixture per well. At this time, the DNA was prepared by mixing a vector (pSNA series) containing a SEAP N-terminal fragment and a vector (pSCA or pSCB series) containing a SEAP C-terminal fragment.\nAfter 24 hours of the transformation, the culture medium was replaced with DMEM with 100 nM rapamycin or DMEM without rapamycin.\nSEAP activity was measured after 24 hours. The SEAP activity was measured in a time course using a p-nitrophenylphosphate (pNpp)-based absorbance (405 nm) measuring method. 80 μL of a culture medium supernatant, 100 μL of a 2× SEAP buffer solution (21% diethanolamine, 20 mM L-homoarginine, and 1 mM MgCl2, pH 9.8), and 20 μL of 120 mM pNpp were mixed and reacted with one another, and then absorbance at 405 nm was measured.", "data": [{"molecule": "pSNA387: HA-FKBP-snSEAP fusion: SEAP N-terminal fragment (1-387), expression vector", "values": [{"measurement": "SEAP activity of the pair pSNA387 with pSCA380 (FIG. 6)", "value": "excellent SEAP activity"}]}, {"molecule": "pSNA418: HA-FKBP-snSEAP fusion: SEAP N-terminal fragment (1-418), expression vector", "values": [{"measurement": "SEAP activity of the pair pSNA418 with pSCA405 or pSCB405 (FIG. 6)", "value": "excellent SEAP activity"}]}, {"molecule": "pSNA404: HA-FKBP-snSEAP fusion: SEAP N-terminal fragment (1-404), expression vector", "values": [{"measurement": "SEAP activity of the pair pSNA404 with pSCA388 or pSCB388 (FIG. 6)", "value": "excellent SEAP activity"}]}, {"molecule": "pSNA379: HA-FKBP-snSEAP fusion: SEAP N-terminal fragment (1-379) fused to C-terminal of FKBP12, expression vector", "values": [{"measurement": "SEAP activity of the pair pSNA379 with pSCA373 or pSCB373 (FIG. 6)", "value": "excellent SEAP activity"}]}, {"molecule": "pSCA373: FLAG-FRB-scSEAP fusion: SEAP C-terminal fragment (373-502), cleaved at position 372, expression vector (protein, left off: small tags and cut ends, FLAG-FRB-scSEAP fusion: SEAP C-terminal fragment (373-502), cleaved at position 372, expression vector) ILWHEMWHEGLEEASRLYFGERNVKGMFEVLEPLHAMMERGPQTLKETSFNQAYGRDLMEAQEWCRKYMKSGNVKDLTQAWDLYYHVFRRISKKGSGSTSGSGSIFGLAPGKARDRKAYTVLLYGNGPGYVLKDGARPDVTESESGSPEYRQQSAVPLDEETHAGEDVAVFARGPQAHLVHGVQEQTFIAHVMAFAACLEPYTACDLAPPAGTTDAAHPGYSRVGAAGRFEQT", "values": [{"measurement": "SEAP activity of the pair pSNA379 with pSCA373 or pSCB373 (FIG. 6)", "value": "excellent SEAP activity"}]}, {"molecule": "pSCB373: scSEAP-FRB-FLAG fusion: SEAP C-terminal fragment (373-502), cleaved at position 372, expression vector (protein, left off: small tags and cut ends, scSEAP-FRB-FLAG fusion: SEAP C-terminal fragment (373-502), cleaved at position 372, expression vector) SIFGLAPGKARDRKAYTVLLYGNGPGYVLKDGARPDVTESESGSPEYRQQSAVPLDEETHAGEDVAVFARGPQAHLVHGVQEQTFIAHVMAFAACLEPYTACDLAPPAGTTDAAHPGYSRVGAAGRFEQTKGSGSTSGSGILWHEMWHEGLEEASRLYFGERNVKGMFEVLEPLHAMMERGPQTLKETSFNQAYGRDLMEAQEWCRKYMKSGNVKDLTQAWDLYYHVFRRISK", "values": [{"measurement": "SEAP activity of the pair pSNA379 with pSCA373 or pSCB373 (FIG. 6)", "value": "excellent SEAP activity"}]}, {"molecule": "pSCA380: FLAG-FRB-scSEAP fusion: SEAP C-terminal fragment (380-502), cleaved at position 379, expression vector (protein, left off: small tags and cut ends, FLAG-FRB-scSEAP fusion: SEAP C-terminal fragment (380-502), cleaved at position 379, expression vector) ILWHEMWHEGLEEASRLYFGERNVKGMFEVLEPLHAMMERGPQTLKETSFNQAYGRDLMEAQEWCRKYMKSGNVKDLTQAWDLYYHVFRRISKKGSGSTSGSGGKARDRKAYTVLLYGNGPGYVLKDGARPDVTESESGSPEYRQQSAVPLDEETHAGEDVAVFARGPQAHLVHGVQEQTFIAHVMAFAACLEPYTACDLAPPAGTTDAAHPGYSRVGAAGRFEQT", "values": [{"measurement": "SEAP activity of the pair pSNA387 with pSCA380 (FIG. 6)", "value": "excellent SEAP activity"}]}, {"molecule": "pSCA388: FLAG-FRB-scSEAP fusion: SEAP C-terminal fragment (388-502), cleaved at position 387, expression vector (protein, left off: small tags and cut ends, FLAG-FRB-scSEAP fusion: SEAP C-terminal fragment (388-502), cleaved at position 387, expression vector) ILWHEMWHEGLEEASRLYFGERNVKGMFEVLEPLHAMMERGPQTLKETSFNQAYGRDLMEAQEWCRKYMKSGNVKDLTQAWDLYYHVFRRISKKGSGSTSGSGYTVLLYGNGPGYVLKDGARPDVTESESGSPEYRQQSAVPLDEETHAGEDVAVFARGPQAHLVHGVQEQTFIAHVMAFAACLEPYTACDLAPPAGTTDAAHPGYSRVGAAGRFEQT", "values": [{"measurement": "SEAP activity of the pair pSNA404 with pSCA388 or pSCB388 (FIG. 6)", "value": "excellent SEAP activity"}]}, {"molecule": "pSCB388: scSEAP-FRB-FLAG fusion: SEAP C-terminal fragment (388-502), cleaved at position 387, expression vector (protein, left off: small tags and cut ends, scSEAP-FRB-FLAG fusion: SEAP C-terminal fragment (388-502), cleaved at position 387, expression vector) YTVLLYGNGPGYVLKDGARPDVTESESGSPEYRQQSAVPLDEETHAGEDVAVFARGPQAHLVHGVQEQTFIAHVMAFAACLEPYTACDLAPPAGTTDAAHPGYSRVGAAGRFEQTKGSGSTSGSGILWHEMWHEGLEEASRLYFGERNVKGMFEVLEPLHAMMERGPQTLKETSFNQAYGRDLMEAQEWCRKYMKSGNVKDLTQAWDLYYHVFRRISK", "values": [{"measurement": "SEAP activity of the pair pSNA404 with pSCA388 or pSCB388 (FIG. 6)", "value": "excellent SEAP activity"}]}, {"molecule": "pSCA405: FLAG-FRB-scSEAP fusion: SEAP C-terminal fragment (405-502), cleaved at position 404, expression vector (protein, left off: small tags and cut ends, FLAG-FRB-scSEAP fusion: SEAP C-terminal fragment (405-502), cleaved at position 404, expression vector) ILWHEMWHEGLEEASRLYFGERNVKGMFEVLEPLHAMMERGPQTLKETSFNQAYGRDLMEAQEWCRKYMKSGNVKDLTQAWDLYYHVFRRISKKGSGSTSGSGARPDVTESESGSPEYRQQSAVPLDEETHAGEDVAVFARGPQAHLVHGVQEQTFIAHVMAFAACLEPYTACDLAPPAGTTDAAHPGYSRVGAAGRFEQT", "values": [{"measurement": "SEAP activity of the pair pSNA418 with pSCA405 or pSCB405 (FIG. 6)", "value": "excellent SEAP activity"}]}, {"molecule": "pSCB405: scSEAP-FRB-FLAG fusion: SEAP C-terminal fragment (405-502), cleaved at position 404, expression vector (protein, left off: small tags and cut ends, scSEAP-FRB-FLAG fusion: SEAP C-terminal fragment (405-502), cleaved at position 404, expression vector) ARPDVTESESGSPEYRQQSAVPLDEETHAGEDVAVFARGPQAHLVHGVQEQTFIAHVMAFAACLEPYTACDLAPPAGTTDAAHPGYSRVGAAGRFEQTKGSGSTSGSGILWHEMWHEGLEEASRLYFGERNVKGMFEVLEPLHAMMERGPQTLKETSFNQAYGRDLMEAQEWCRKYMKSGNVKDLTQAWDLYYHVFRRISK", "values": [{"measurement": "SEAP activity of the pair pSNA418 with pSCA405 or pSCB405 (FIG. 6)", "value": "excellent SEAP activity"}]}]}
